The record followed here is US20160032279 (published 2016).

Where two headings read alike, the source gives them in different places. No end group written: not given here.

Assay [1] has as its target T1, Streptavidin (Streptomyces avidinii, UniProt P22629). Put plainly: FACS. A general note: A flow cytometer gives signals particle by particle.
For assay [2], the target named is T1, Streptavidin. Put plainly: FACS. The source holds these as a separate data set.

T1 sequence (P22629 37-163): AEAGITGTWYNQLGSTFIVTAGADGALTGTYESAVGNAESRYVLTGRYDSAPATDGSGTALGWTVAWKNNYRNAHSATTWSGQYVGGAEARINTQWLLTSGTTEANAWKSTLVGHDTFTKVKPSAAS

In the case of ICSYVMYTTCFLRVY (cysteine pairing not given here; also: phycoerythrin conjugate) [SA-2], the affinity in assay [1], expressed as Kd, was 8 nM.

On to TVLICMNICWTGETQ (cysteine pairing not given here; also: phycoerythrin conjugate) [SA-3], for which the equilibrium dissociation constant (Kd) in assay [1] and in assay [2] was 4 nM in each case.

With RLEICQNVCYYLGTL (cysteine pairing not given here; also: phycoerythrin conjugate) [SA-1], in assay [1], the equilibrium dissociation constant (Kd) was 10 nM.

Broadly, the Kd is the concentration at which binding is half-saturated.
